# According to paper PMC8341956:
# Target: nucleosome core particle (recombinant Xenopus laevis histone octamer on 147 bp 601 DNA) (Xenopus laevis)
# Test: native gel or EMSA; HMGN1 variants incubated with AlexaFluor488-labelled nucleosome cores (50 nM) at 0.5:1, 1:1 and 2:1 HMGN1 per nucleosome; 10 mM Tris pH 7.5, 25 mM NaCl, 25 mM KCl, 0.2 mM DTT, 4% sucrose, on ice 20-30 min; 5% native PAGE, 0.5x TBE, 4 °C
row,Substance,stoichiometry N (HMGN1 molecules per nucleosome)
1,semi-synthetic unmodified HMGN1 (natural protein),2
2,"full-length recombinant HMGN1 (HMGN1_1–99, unmodified) (natural protein)",2
